Substitutions are numbered along the chain they refer to.
How the values were obtained:
[1] = target: T1, mouse IgG1 Fc-fused SARS-CoV-2 RBD (SARS-CoV-2, UniProt P0DTC2); test: BLI; settings: both partners purified
[2] = target: T1, mouse IgG1 Fc-fused SARS-CoV-2 RBD; test: BLI; settings: both partners purified; remark: listed apart in the source

B1: (humVHH)2/WT-Fc (Fc fusion)
chain: EVQLVESGGGLVQPGGSLRLSCAASGRTFSEYAMGWFRQAPGKEREFVATISWSGGSTYYTDSVKGRFTISRDNAKNTVYLQMNSLRPEDTAVYYCAAAGLGTVVSEWDYDYDYWGQGTLVTVSSGGGGSGGGGSGGGGSEVQLVESGGGLVQPGGSLRLSCAASGRTFSEYAMGWFRQAPGKEREFVATISWSGGSTYYTDSVKGRFTISRDNAKNTVYLQMNSLRPEDTAVYYCAAAGLGTVVSEWDYDYDYWGQGTLVTVSS
**Q.** For B1, which Kd [1] is on record?
**A.** < 1 pM

**Q.** And the koff [1]?
**A.** < 1e-07 s⁻¹

**Q.** And the kon [1]?
**A.** 2.65e+06 M⁻¹ s⁻¹

B2: (humVHH_S56A)2/LALAPG-Fc/Gen2 (Fc fusion)
chain: B1 chain with E1D, S57A, E141D, S197A
**Q.** Which results are given for B2?
**A.** Kd [1]: < 1 pM; koff [1]: < 1e-07 s⁻¹; kon [1]: 2.48e+06 M⁻¹ s⁻¹

B3: humVHH/WT-Fc (Fc fusion)
chain: EVQLVESGGGLVQPGGSLRLSCAASGRTFSEYAMGWFRQAPGKEREFVATISWSGGSTYYTDSVKGRFTISRDNAKNTVYLQMNSLRPEDTAVYYCAAAGLGTVVSEWDYDYDYWGQGTLVTVSS
notes: also called VHH72_h1-GS-hIgG1hinge-hIgG1Fc; construct 4
**Q.** Which Kd [2] does the source give for B3 here?
**A.** 100 pM

**Q.** And the koff [2]?
**A.** 0.00019 s⁻¹

**Q.** What about the kon [2] of the same binder?
**A.** 1.9e+06 M⁻¹ s⁻¹

B4: humVHH_S56A/LALAPG-Fc/Gen2 (Fc fusion)
chain: B3 chain with E1D, S57A
**Q.** With B4 as the binder, how does the Kd [1] read?
**A.** 40.8 pM

**Q.** And the koff [1]?
**A.** 6.16e-05 s⁻¹

**Q.** And the kon [1]?
**A.** 1.52e+06 M⁻¹ s⁻¹

Reference: PMC9924070 (Science Translational Medicine, 2021)
